Where no end group is shown, it is not given here. Side-chain parts run from the residue outwards. dermatan sulfate = dermatan sulfate, the glycan component of the peptidoglycan; BMPH = crosslinker coupling the Cys thiol to oxidized dermatan sulfate
Legend:
[1] = biological target: Type I fibrillar collagen (Chronolog, Havertown, Pa.); assay: plate binding assay on fibrillar collagen, biotin label detected with streptavidin-HRP, saturation curve fit
[2] = biological target: Type I fibrillar collagen (Chronolog, Havertown, Pa.); assay: plate assay on fibrillar collagen, biotin labeled peptidoglycan detected with streptavidin-HRP, Abs 450 nm
[3] = biological target: Type I fibrillar collagen (Chronolog, Havertown, Pa.); assay: diffusion from fibrillar collagen coated plate at 37° C., loaded at 10 µM, biotin label detected with streptavidin-HRP
[4] = biological target: collagen (type and supplier not stated; Examples 11 and 12); assay: SPR (Biacore 2000, CM-3 chip), collagen immobilized, peptide in flow at 100 µM to 1.5 µM

B1: biotin labeled peptidoglycan DS-SILY18 (DS-SILY18-biotin) (peptide)
peptide: RRANAALKAGELYKSILYGC([BMPH-dermatan sulfate])
modifications: not fully specified (C-terminus); also: 18 SILY peptides per dermatan sulfate, 2 of them biotin labeled, biotin position not given here
Kd [1]: 24 nM
EC50 (read off the curve) [2]: 20 nM
amount remaining bound after 1 week of extensive rinsing (equivalent concentration) [3]: 10 nM

B2: biotin labeled peptidoglycan DS-SILY4 (DS-SILY4-biotin) (peptide)
peptide: RRANAALKAGELYKSILYGC([BMPH-dermatan sulfate])
modifications: not fully specified (C-terminus); also: 4 SILY peptides per dermatan sulfate, biotin label on every peptide, position not given here
Kd [1]: 118 nM
EC50 (read off the curve) [2]: 100 nM

B3: peptide … (SILY) (peptide)
peptide: RRANAALKAGELYKSILYGC
Kd [4]: 1200 nM

Reference: patent US20130190246A1
